In paper PMC4644223 one finds stoichiometry N and filament growth rate (subunits.s^−1.μM^−1) data, which are given here for two molecules.

For assay [1], the target named is T1, Snf7 labeled with Alexa488 (yeast), P39929.
T1 chain: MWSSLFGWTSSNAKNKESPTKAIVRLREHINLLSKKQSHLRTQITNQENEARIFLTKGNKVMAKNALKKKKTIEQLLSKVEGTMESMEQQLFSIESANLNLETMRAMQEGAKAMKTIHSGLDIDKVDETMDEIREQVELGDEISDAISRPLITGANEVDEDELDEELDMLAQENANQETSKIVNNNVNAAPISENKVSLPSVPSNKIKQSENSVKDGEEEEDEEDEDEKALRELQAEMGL
The assay is described as follows: TIRF microscopy with counting of molecules by fluorescence intensity. The note with it: remark: other sources report otherwise.

Assay [2] concerns the target T2, Snf7 (yeast), P39929.
T2 chain: T1 chain
The assay is described as follows: high-speed atomic force microscopy. The settings on record: remark: other sources report otherwise.

B1: Snf7 labeled with Alexa488, P39929 1-240 (natural protein)
chain: T1 chain
modifications: here or on the partner: Alexa488 label (TFP-Alexa-488), site not stated; Alexa488 label (TFP-Alexa-488), site not stated
Consider B1, for which, in assay [1], the stoichiometry N was found to be 50 monomers.

B2: Snf7, P39929 1-240 (natural protein)
chain: T1 chain
For the molecule B2, the filament growth rate (subunits.s^−1.μM^−1) in assay [2] is 3.

One may read the stoichiometry N as a count of units in the complex or per binding partner.
